# Data published in the nanobody polyreactivity screen of Harvey et al. (2022).
# Test: yeast display, Sf9 membrane polyspecificity reagent, FACS + sequencing; frameworks hold sequencing errors
# How it was run: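 After 36–48 hours of galactose induction, yeast (Saccharomyces cerevisiae BJ5465) displaying a synthetic nanobody library were stained at 4 °C for 1 hour with 10% biotinylated, detergent-solubilized Sf9 membrane reagent. Streptavidin microbeads enriched the stained cells before FACS sorting into low and high (top ~1%) gates on anti-HA and streptavidin fluorescence. Each clone's polyreactivity label reflects its gate of origin.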
row,Sequence,polyreactivity (PSR sort gate)
1,QVQLVESGGGLVQAGGSLRLSCAASGRIFPYYAMGWSRQAPGKERELVAAITSGGTTYYADSVKGRFTISRDNAKNTVYLQMNSLKPEDTAVYYCEYDYWGQGTQVTVSS,low polyreactivity
2,QVQLVESGGGLVQAGGSLRLSCAASGRIFPYYAMGWYRPAPGKERELVATISTAGSTNYADSVKGRFTISRDNAKNTVYLQMKSLKPEDTAVYYCATRNTWYHRGYDYWGQGTQVTVSS,low polyreactivity
3,QVQLVESGGGLVQAGGSLRLSCAASGRIFPYYAMGWYRQAPGKEREFVAAITSSGGTTYYADSVKGRFTISRDNAKNTVYLQMNSLKPEDTAVYYCFAVRLYALYAGRPYDYWGQGTQVTVSS,low polyreactivity
4,QVQLVESGGGLVQAGGSLRLSCAASGRIFPYYAMGWYRQAPGKERELVAAISSGTSTYYADSVKGRFTISRDNANNTVYLKMNSLKQEDTAVYYSNGRHRRGRFTHDYDYWGQGTQVTVTS,low polyreactivity
5,QVQLVESGGGLVQAGGSLRLSCAASGRIFPYYAMGWYRQAPGKERELVAAITRGGSRTYYADSVKGRFTISRDNAKNTVYLQMNSLKPEDTAVSYCARLDGFSASDHDYGGQGTQVTVSS,high polyreactivity
6,QVQLVESGGGLVQAGGSLRLSCAASGRIFPYYDMGWYRQAPGKERELVAAITSSGSTFYADSVKGRFTISRDNAKNTVYLQMNSLKPEDTAVYYCNTRDIRVRPYDYWGQGTQVTVSS,low polyreactivity
7,QVQLVESGGGLVQAGGSLRLSCAASGRIFQAYAMGWYRQAPGKERELVAAISRSGGGTYYADSVKGRFTISRDNAKNTVYLQMNSLKPEDTAVYYCNARGSTARGRGYWGQGTQVTVSS,high polyreactivity
8,QVQLVESGGGLVQAGGSLRLSCAASGRIFQAYAMGWYRQAPGKERELVASISYRGGITYYADSVKGRFTISRDNAKNTVYLQMNSLKPEDTAVYYCAAGRKGSMYYWGQGTQVTVSS,high polyreactivity
9,QVQLVESGGGLVQAGGSLRLSCAASGRIFQGYAMGWYRPAPGKERELGASIRTGGTTNYADSVKGRFTISRDNAKNTVYLQMNSLTPEDTAVYYCAKRYYGWYGNFDYWGQGTQVTVSA,high polyreactivity
10,QVQLVESGGGLVQAGGSLRLSCAASGRIFQGYAMGWYRQAPGKERELVAAITRSGGSTYYADSVKGRFTISRDNAKNTVYLQMNSLKPEDTAVYYCAASHYGLLEYWGQGTQVTVSS,low polyreactivity
11,QVQLVESGGGLVQAGGSLRLSCAASGRIFQGYVMGWYRQAQGQERELVAAITTGGSTYYADSVKGRFTISRDNAKNTVYLQMNSLKPEDTAVYYCNAVVYVSGYNPYIFGYWGQGTQVTVSS,low polyreactivity
12,QVQLVESGGGLVQAGGSLRLSCAASGRIFQKYAMGWYRQAPGKESELVAAISSGDSTYADSVKGRFTISRDNAKNTVYLQMNSLIPEDTAVYYCAVDLYDPWWYSYIGEYEYWGQGTQVSVSS,low polyreactivity
13,QVQLVESGGGLVQAGGSLRLSCAASGRIFQNYAMGWYRQAHGKERELVATISSGVSTYYADSVKGRFTISRDNAKNTVYLQMNSLKPEDTAVNYCAAYVPWFEMDYWGQGTQVTVSS,low polyreactivity
14,QVQLVESGGGLVQAGGSLRLSCAASGRIFQQYAMGWYRQAPGKEREVVAAISRGGSTYYADSVKGRFTISRDNAKNTVYLQMNSLKPEDTAVYYCAVRSRRGLKYDYWGQGTQVTVSS,high polyreactivity
15,QVQLVESGGGLVQAGGSLRLSCAASGRIFQRNAMGWYRQEPRKEREFVAAITKSGGGTYADSVKGRFTISRDNAKNTVYLQMNSLKPEDTAVYFCAADSRGEDYYYWGQGTQVTVSS,high polyreactivity
16,QVQLVESGGGLVQAGGSLRLSCAASGRIFQRNVMGWYRQAPGKERELVASITGGGTTNYAHSVKGRFTISRDNAKNTVYLPRNSLKPEDTAVYYCNRRQNVGRVSQYEYWGQGTQVTVSS,low polyreactivity
